Reference: article PMC11992040

What was measured:
[1] = target: SmT1 (CT), resistin-trimerized SARS-CoV-2 spike ectodomain with complex-type N-glycans (SARS-CoV-2 | human) (UniProt P0DTC2); assay: SEC
[2] = target: SmT2 (CT), T4 foldon-trimerized SARS-CoV-2 spike ectodomain with complex-type N-glycans (SARS-CoV-2 | bacteriophage T4) (UniProt P0DTC2); assay: SEC-MALS
[3] = target: SmT2 (HM), T4 foldon-trimerized SARS-CoV-2 spike ectodomain with high-mannose N-glycans (SARS-CoV-2 | bacteriophage T4) (UniProt P0DTC2); assay: SEC-MALS

Substance: SmT1 (CT), resistin-trimerized SARS-CoV-2 spike ectodomain with complex-type N-glycans (from UniProt P0DTC2;Q9HD89-1)
- stoichiometry N [1]: 3

Substance: SmT2 (CT), T4 foldon-trimerized SARS-CoV-2 spike ectodomain with complex-type N-glycans (from UniProt P0DTC2 14-1208)
- stoichiometry N [2]: 3

Substance: SmT2 (HM), T4 foldon-trimerized SARS-CoV-2 spike ectodomain with high-mannose N-glycans (from UniProt P0DTC2 14-1208)
- stoichiometry N [3]: 3
